The values that follow come from US12685772B2, “Methods for treating CAPRIN-1 expressing cancers” (TORAY INDUSTRIES, INC., priority 2020, dated 2026).

The test has as its target T1, CAPRIN-1 protein (Homo sapiens, UniProt Q14444).
T1 construct: made in house
T1 sequence (Q14444 1-709): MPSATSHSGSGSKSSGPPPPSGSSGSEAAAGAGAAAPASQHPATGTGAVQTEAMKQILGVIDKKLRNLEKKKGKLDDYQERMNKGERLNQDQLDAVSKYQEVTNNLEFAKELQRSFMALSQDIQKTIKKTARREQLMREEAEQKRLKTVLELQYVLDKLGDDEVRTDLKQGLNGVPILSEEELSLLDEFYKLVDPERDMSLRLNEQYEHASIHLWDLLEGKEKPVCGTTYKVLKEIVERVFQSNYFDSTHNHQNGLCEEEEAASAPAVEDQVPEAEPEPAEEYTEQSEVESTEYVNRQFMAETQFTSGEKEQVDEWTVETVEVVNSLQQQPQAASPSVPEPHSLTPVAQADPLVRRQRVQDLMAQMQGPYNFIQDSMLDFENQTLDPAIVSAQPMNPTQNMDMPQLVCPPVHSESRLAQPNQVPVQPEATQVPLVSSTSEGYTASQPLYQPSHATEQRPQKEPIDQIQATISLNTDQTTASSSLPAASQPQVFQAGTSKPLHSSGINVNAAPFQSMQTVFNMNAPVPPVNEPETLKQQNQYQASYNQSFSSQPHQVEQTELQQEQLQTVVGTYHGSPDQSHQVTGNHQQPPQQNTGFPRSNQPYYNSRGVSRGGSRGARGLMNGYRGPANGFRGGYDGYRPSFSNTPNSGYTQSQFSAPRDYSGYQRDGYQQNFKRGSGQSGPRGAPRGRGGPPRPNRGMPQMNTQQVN
As to the kind of experiment: ELISA using CAPRIN-1 protein immobilized on a plate. It counts as binding. The protocol:
One hundred (100) μg of a human CAPRIN-1 recombinant protein produced according to Example 3 of WO2010/016526 was mixed with a MPL+TDM adjuvant (Sigma) in an amount equivalent to that of the recombinant protein. The mixture was used as an antigen solution per mouse. The antigen solution was administered intraperitoneally to 6-week-old Balb/c mice (Japan SLC Inc.) and then further administered 3 times […] every week for completion of immunization. A spleen was removed on day 3 after the final immunization and then ground between two sterilized glass slides. Spleen cells were obtained by washing with PBS (−) (Nissui Pharmatheutical), centrifuging at 1500 rpm for 10 minutes, and removing supernatant, therein these were repeated 3 times. The obtained spleen cells were mixed with mouse myeloma cell SP2/0 (purchased from ATCC) at a ratio of 10:1. The PEG solution prepared by mixing 200 μl of RPMI1640 medium containing 10% FBS heated at 37° C. and 800 μl of PEG1500 (Boehringer) was added to the cells. The solution was incubated for 5 minutes for cell fusion. Centrifugation was performed at 1700 rpm for 5 minutes to remove supernatants. […] Absorbance at 450 nm and absorbance at 595 nm were measured using an absorption spectrometer. As a result, a plurality of hybridomas producing antibodies with high absorbances were selected. […]
On the technique in general: ELISA stands for enzyme-linked immunosorbent assay.

B1: monoclonal antibody against CAPRIN-1 described in WO2013/125630: mouse monoclonal antibody with heavy-chain variable region SEQ ID NO: 114 and light-chain variable region SEQ ID NO: 115 (antibody, listed as Mus musculus, V domains shown)
VH: GPELVKPGASVKMSCKASGYTFTSYVMHWVKQKPGQGLEWIGYINPYNDGTKYNEKFKGKATLTSDKSSSTAYMELSSLTSEDSAVYYCARRYYYGSSGGYFDVWAQDHVRT
VL: DVQITQSPSYLAASPGETITINCRASKSISKYLAWYQEKPGKTNKLLIYSGSTLQSGIPSRFSGSGSGTDFTLTISSLEPEDFAMYYCQQHNEYPYTFGGGTKLEIKR
In the case of B1, the “specific reactivity to CAPRIN-1 protein” value is on record as “exhibiting reactivity”.
